Results from the supplement of paper PMC5998384.

Key:
HeLa Kyoto [1] = assay: solubility change mitosis vs G1/S (difference of NP-40 vs SDS log2 ratios) (log2 ratio difference); higher = more soluble in mitosis
HeLa Kyoto [2] = assay: solubility in G1/S (NP-40 vs SDS abundance) (log2 ratio); higher = more soluble; conditions: cell cycle stage: G1/S
HeLa Kyoto [3] = assay: thermal stability score vs G1/S (z-score of summed log2 fold changes over temperatures); higher = more thermally stable than in G1/S
[4] = cell cycle stage: early G1 (4.5 h after nocodazole release)
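Wherever solubility change mitosis vs G1/S (difference of NP-40 vs SDS log2 ratios) is given: synchronized HeLa Kyoto cells (double thymidine block for G1/S, nocodazole release for mitosis), protein amounts in NP-40 versus SDS lysates quantified by mass spectrometry, three biological replicates.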
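Wherever solubility in G1/S (NP-40 vs SDS abundance) is given: HeLa Kyoto cells arrested at G1/S by double thymidine block, proteins quantified by TMT10plex mass spectrometry in mild NP-40 versus SDS extracts, three biological replicates.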
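Wherever thermal stability score vs G1/S (z-score of summed log2 fold changes over temperatures) is given: synchronized HeLa Kyoto cells, proteins quantified by TMT10plex mass spectrometry, three biological replicates, mitosis taken 0.5 h after nocodazole release, G1/S directly after double thymidine block.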

Sequence	solubility change mitosis (log2) (HeLa Kyoto [1])	solubility in G1/S (log2) (HeLa Kyoto [2])	thermal stability score (HeLa Kyoto [3]; [4])	thermal stability score (HeLa Kyoto [3]; cell cycle stage: mitosis)
MLPRRLLAAWLAGTRGGGLLALLANQCRFVTGLRVRRAQQIAQLYGRLYSESSRRVLLGRLWRRLHGRPGHASALMAALAGVFVWDEERIQEEELQRSINEMKRLEEMSNMFQSSGVQHHPPEPKAQTEGNEDSEGKEQRWEMVMDKKHFKLWRRPITGTHLYQYRVFGTYTDVTPRQFFNVQLDTEYRKKWDALVIKLEVIERDVVSGSEVLHWVTHFPYPMYSRDYVYVRRYSVDQENNMMVLVSRAVEHPSVPESPEFVRVRSYESQMVIRPHKSFDENGFDYLLTYSDNPQTVFPRYCVSWMVSSGMPDFLEKLHMATLKAKNMEIKVKDYISAKPLEMSSEAKATSQSSERKNEGSCGPARIEYA [STARD7]	-0.155	0.128	-1.31	-0.89
MLQNPQEKSQAYPRRRRPGCYAYRQNPEAIAAAAMYTFLPDNFSPAKPKPSKDLKPLLGSAVLGLLLVLAAVVAWCYYSVSLRKAERLRAELLDLKAGGFSIRNQKGEQVFRLAFRSGALDLDSCSRDGALLGCSLTADGLPLHFFIQTVRPKDTVMCYRVRWEEAAPGRAVEHAMFLGDAAAHWYGGAEMRTQHWPIRLDGQQEPQPFVTSDVYSSDAAFGGILERYWLSSRAAAIKVNDSVPFHLGWNSTERSLRLQARYHDTPYKPPAGRAAAPELSYRVCVGSDVTSIHKYMVRRYFNKPSRVPAPEAFRDPIWSTWALYGRAVDQDKVLRFAQQIRLHHFNSSHLEIDDMYTPAYGDFDFDEVKFPNASDMFRRLRDAGFRVTLWVHPFVNYNSSRFGEGVERELFVREPTGRLPALVRWWNGIGAVLDFTHPKARDWFQGHLRRLRSRYSVASFKFDAGEVSYLPRDFSTYRPLPDPSVWSRRYTEMALPFFSLAEVRVGYQSQNISCFFRLVDRDSVWGYDLGLRSLIPAVLTVSMLGYPFILPDMVGGNAVPQRTAGGDVPERELYIRWLEVAAFMPAMQFSIPPWRYDAEVVAIAQKFAALRASLVAPLLLELAGEVTDTGDPIVRPLWWIAPGDETAHRIDSQFLIGDTLLVAPVLEPGKQERDVYLPAGKWRSYKGELFDKTPVLLTDYPVDLDEIAYFTWAS [KIAA1161]	-0.254	0.099	-4.62	-3.21
MLVGQGAGLLGPAVVTAAVVLLLSGVGPAHGSEDIVVGCGGFVKSDVEINYSLIEIKLYTKHGTLKYQTDCAPNNGYFMIPLYDKGDFILKIEPPLGWSFEPTTVELHVDGVSDICTKGGDINFVFTGFSVNGKVLSKGQPLGPAGVQVSLRNTGTEAKIQSTVTQPGGKFAFFKVLPGDYEILATHPTWALKEASTTVRVTNSNANAASPLIVAGYNVSGSVRSDGEPMKGVKFLLFSSLVTKEDVLGCNVSPVPGFQPQDESLVYLCYTVSREDGSFSFYSLPSGGYTVIPFYRGERITFDVAPSRLDFTVEHDSLKIEPVFHVMGFSVTGRVLNGPEGDGVPEAVVTLNNQIKVKTKADGSFRLENITTGTYTIHAQKEHLYFETVTIKIAPNTPQLADIVATGFSVCGRISIIRFPDTVKQMNKYKVVLSSQDKDKSLVTVETDAHGSFCFKAKPGTYKVQVMVPEAETRAGLTLKPQTFPLTVTDRPVMDVAFVQFLASVSGKVSCLDTCGDLLVTLQSLSRQGEKRSLQLSGKVNAMTFTFDNVLPGKYKISIMHEDWCWKNKSLEVEVLEDDVSAVEFRQTGYMLRCSLSHAITLEFYQDGNGRENVGIYNLSKGVNRFCLSKPGVYKVTPRSCHRFEQAFYTYDTSSPSILTLTAIRHHVLGTITTDKMMDVTVTIKSSIDSEPALVLGPLKSVQELRREQQLAEIEARRQEREKNGNEEGEERMTKPPVQEMVDELQGPFSYDFSYWARSGEKITVTPSSKELLFYPPSMEAVVSGESCPGKLIEIHGKAGLFLEGQIHPELEGVEIVISEKGASSPLITVFTDDKGAYSVGPLHSDLEYTVTSQKEGYVLTAVEGTIGDFKAYALAGVSFEIKAEDDQPLPGVLLSLSGGLFRSNLLTQDNGILTFSNLSPGQYYFKPMMKEFRFEPSSQMIEVQEGQNLKITITGYRTAYSCYGTVSSLNGEPEQGVAMEAVGQNDCSIYGEDTVTDEEGKFRLRGLLPGCVYHVQLKAEGNDHIERALPHHRVIEVGNNDIDDVNIIVFRQINQFDLSGNVITSSEYLPTLWVKLYKSENLDNPIQTVSLGQSLFFHFPPLLRDGENYVVLLDSTLPRSQYDYILPQVSFTAVGYHKHITLIFNPTRKLPEQDIAQGSYIALPLTLLVLLAGYNHDKLIPLLLQLTSRLQGVGALGQAASDNSGPEDAKRQAKKQKTRRTLRLQEEFQLMWCLVPWRGTLGIHLFSSLPFASEILLETTATCIHY [NOMO2]	-0.136	-0.0617	-0.17	-0.401
MNLAEICDNAKKGREYALLGNYDSSMVYYQGVMQQIQRHCQSVRDPAIKGKWQQVRQELLEEYEQVKSIVSTLESFKIDKPPDFPVSCQDEPFRDPAVWPPPVPAEHRAPPQIRRPNREVRPLRKEMAGVGARGPVGRAHPISKSEKPSTSRDKDYRARGRDDKGRKNMQDGASDGEMPKFDGAGYDKDLVEALERDIVSRNPSIHWDDIADLEEAKKLLREAVVLPMWMPDFFKGIRRPWKGVLMVGPPGTGKTMLAKAVATECGTTFFNVSSSTLTSKYRGESEKLVRLLFEMARFYAPTTIFIDEIDSICSRRGTSDEHEASRRVKSELLIQMDGVGGALENDDPSKMVMVLAATNFPWDIDEALRRRLEKRIYIPLPTAKGRAELLKINLREVELDPDIQLEDIAEKIEGYSGADITNVCRDASLMAMRRRINGLSPEEIRALSKEELQMPVTKGDFELALKKIAKSVSAADLEKYEKWMVEFGSA [KATNAL1]	0.119	0.0559	1.07	0.457
MPEESSPRRTPQSIPYQDLPHLVNADGQYLFCRYWKPTGTPKALIFVSHGAGEHSGRYEELARMLMGLDLLVFAHDHVGHGQSEGERMVVSDFHVFVRDVLQHVDSMQKDYPGLPVFLLGHSMGGAIAILTAAERPGHFAGMVLISPLVLANPESATTFKVLAAKVLNLVLPNLSLGPIDSSVLSRNKTEVDIYNSDPLICRAGLKVCFGIQLLNAVSRVERALPKLTVPFLLLQGSADRLCDSKGAYLLMELAKSQDKTLKIYEGAYHVLHKELPEVTNSVFHEINMWVSQRTATAGTASPP [MGLL]	-0.16	0.347	0.0154	-0.539
MPLELTQSRVQKIWVPVDHRPSLPRSCGPKLTNSPTVIVMVGLPARGKTYISKKLTRYLNWIGVPTKVFNVGEYRREAVKQYSSYNFFRPDNEEAMKVRKQCALAALRDVKSYLAKEGGQIAVFDATNTTRERRHMILHFAKENDFKAFFIESVCDDPTVVASNIMEVKISSPDYKDCNSAEAMDDFMKRISCYEASYQPLDPDKCDRDLSLIKVIDVGRRFLVNRVQDHIQSRIVYYLMNIHVQPRTIYLCRHGENEHNLQGRIGGDSGLSSRGKKFASALSKFVEEQNLKDLRVWTSQLKSTIQTAEALRLPYEQWKALNEIDAGVCEELTYEEIRDTYPEEYALREQDKYYYRYPTGESYQDLVQRLEPVIMELERQENVLVICHQAVLRCLLAYFLDKSAEEMPYLKCPLHTVLKLTPVAYGCRVESIYLNVESVCTHRERSEDAKKGPNPLMRRNSVTPLASPEPTKKPRINSFEEHVASTSAALPSCLPPEVPTQLPGQNMKGSRSSADSSRKH [PFKFB3]	-0.103	0.239	2.73	0.713
MPPKTPRKTAATAAAAAAEPPAPPPPPPPEEDPEQDSGPEDLPLVRLEFEETEEPDFTALCQKLKIPDHVRERAWLTWEKVSSVDGVLGGYIQKKKELWGICIFIAAVDLDEMSFTFTELQKNIEISVHKFFNLLKEIDTSTKVDNAMSRLLKKYDVLFALFSKLERTCELIYLTQPSSSISTEINSALVLKVSWITFLLAKGEVLQMEDDLVISFQLMLCVLDYFIKLSPPMLLKEPYKTAVIPINGSPRTPRRGQNRSARIAKQLENDTRIIEVLCKEHECNIDEVKNVYFKNFIPFMNSLGLVTSNGLPEVENLSKRYEEIYLKNKDLDARLFLDHDKTLQTDSIDSFETQRTPRKSNLDEEVNVIPPHTPVRTVMNTIQQLMMILNSASDQPSENLISYFNNCTVNPKESILKRVKDIGYIFKEKFAKAVGQGCVEIGSQRYKLGVRLYYRVMESMLKSEEERLSIQNFSKLLNDNIFHMSLLACALEVVMATYSRSTSQNLDSGTDLSFPWILNVLNLKAFDFYKVIESFIKAEGNLTREMIKHLERCEHRIMESLAWLSDSPLFDLIKQSKDREGPTDHLESACPLNLPLQNNHTAADMYLSPVRSPKKKGSTTRVNSTANAETQATSAFQTQKPLKSTSLSLFYKKVYRLAYLRLNTLCERLLSEHPELEHIIWTLFQHTLQNEYELMRDRHLDQIMMCSMYGICKVKNIDLKFKIIVTAYKDLPHAVQETFKRVLIKEEEYDSIIVFYNSVFMQRLKTNILQYASTRPPTLSPIPHIPRSPYKFPSSPLRIPGGNIYISPLKSPYKISEGLPTPTKMTPRSRILVSIGESFGTSEKFQKINQMVCNSDRVLKRSAEGSNPPKPLKKLRFDIEGSDEADGSKHLPGESKFQQKLAEMTSTRTRMQKQKMNDSMDTSNKEEK [RB1]	-0.0546	0.147	0.441	2.18
